Data as given in patent US20250382352A1 (SCG CELL THERAPY PTE, published 2025).

T1: HBsAg recombinant protein (hepatitis B virus)
T1 chain: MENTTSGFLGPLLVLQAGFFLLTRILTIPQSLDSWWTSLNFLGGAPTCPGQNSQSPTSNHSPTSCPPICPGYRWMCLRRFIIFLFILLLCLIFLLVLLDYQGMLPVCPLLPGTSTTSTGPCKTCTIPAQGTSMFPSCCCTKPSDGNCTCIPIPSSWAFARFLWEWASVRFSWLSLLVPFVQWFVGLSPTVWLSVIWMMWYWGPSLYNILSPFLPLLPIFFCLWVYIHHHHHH

B1: BsAb2-5-004 (bispecific antibody)
heavy: not shown
light: QTVVTQEPSFSVSPGGTVTLTCRSSTGAVTTSNYANWYQQTPGQAPRTLIGGTNKRAPGVPDRFSGSILGDKAALTITGAQADDESDYYCALWYSNLWVFGGGTKLTVLRTVAAPSVFIFPPSDEQLKSGTASVVCLLNNFYPREAKVQWKVDNALQSGNSQESVTEQDSKDSTYSLSSTLTLSKADYEKHKVYACEVTHQGLSSPVTKSFNRGEC
notes: also called VH1VL4
B2: BsAb2-6-009 (bispecific antibody)
heavy: not shown
light: QTVVTQEPSFSVSPGGTVTLTCRSSTGAVTTSNYANWYQQTPGQAPRTLIGGTNKRAPGVPDRFSGSILGDKAALTITGAQADDESDYYCALWYSNLWVFGGGTKLTVLRTVAAPSVFIFPPSDEQLKSGTASVVCLLNNFYPREAKVQWKVDNALQSGNSQESVTEQDSKDSTYSLSSTLTLSKADYEKHKVYACEVTHQGLSSPVTKSFNRGEC
notes: also called VH2VL4
B3: BsAb2-6-029 (bispecific antibody)
heavy: not shown
light: QTVVTQEPSFSVSPGGTVTLTCRSSTGAVTTSNYANWYQQTPGQAPRTLIGGTNKRAPGVPDRFSGSILGDKAALTITGAQADDESDYYCALWYSNLWVFGGGTKLTVLRTVAAPSVFIFPPSDEQLKSGTASVVCLLNNFYPREAKVQWKVDNALQSGNSQESVTEQDSKDSTYSLSSTLTLSKADYEKHKVYACEVTHQGLSSPVTKSFNRGEC
notes: also called VH6VL4 (printed VH6VLA)
B4: BsAb2-5-014 (bispecific antibody)
heavy: not shown
light: QTVVTQEPSFSVSPGGTVTLTCRSSTGAVTTSNYANWYQQTPGQAPRTLIGGTNKRAPGVPDRFSGSILGDKAALTITGAQADDESDYYCALWYSNLWVFGGGTKLTVLRTVAAPSVFIFPPSDEQLKSGTASVVCLLNNFYPREAKVQWKVDNALQSGNSQESVTEQDSKDSTYSLSSTLTLSKADYEKHKVYACEVTHQGLSSPVTKSFNRGEC
notes: also called VH3VL4
B5: BsAb2-6-014 (bispecific antibody)
heavy: not shown
light: QTVVTQEPSFSVSPGGTVTLTCRSSTGAVTTSNYANWYQQTPGQAPRTLIGGTNKRAPGVPDRFSGSILGDKAALTITGAQADDESDYYCALWYSNLWVFGGGTKLTVLRTVAAPSVFIFPPSDEQLKSGTASVVCLLNNFYPREAKVQWKVDNALQSGNSQESVTEQDSKDSTYSLSSTLTLSKADYEKHKVYACEVTHQGLSSPVTKSFNRGEC
notes: also called VH3VL4
B6: BsAb2-6-004 (bispecific antibody)
heavy: not shown
light: QTVVTQEPSFSVSPGGTVTLTCRSSTGAVTTSNYANWYQQTPGQAPRTLIGGTNKRAPGVPDRFSGSILGDKAALTITGAQADDESDYYCALWYSNLWVFGGGTKLTVLRTVAAPSVFIFPPSDEQLKSGTASVVCLLNNFYPREAKVQWKVDNALQSGNSQESVTEQDSKDSTYSLSSTLTLSKADYEKHKVYACEVTHQGLSSPVTKSFNRGEC
notes: also called VH1VL4
B7: BsAb2-6-019 (bispecific antibody)
heavy: not shown
light: QTVVTQEPSFSVSPGGTVTLTCRSSTGAVTTSNYANWYQQTPGQAPRTLIGGTNKRAPGVPDRFSGSILGDKAALTITGAQADDESDYYCALWYSNLWVFGGGTKLTVLRTVAAPSVFIFPPSDEQLKSGTASVVCLLNNFYPREAKVQWKVDNALQSGNSQESVTEQDSKDSTYSLSSTLTLSKADYEKHKVYACEVTHQGLSSPVTKSFNRGEC
notes: also called VH4VL4 (printed VH4VLA)
B8: BsAb2-6-024 (bispecific antibody)
heavy: not shown
light: QTVVTQEPSFSVSPGGTVTLTCRSSTGAVTTSNYANWYQQTPGQAPRTLIGGTNKRAPGVPDRFSGSILGDKAALTITGAQADDESDYYCALWYSNLWVFGGGTKLTVLRTVAAPSVFIFPPSDEQLKSGTASVVCLLNNFYPREAKVQWKVDNALQSGNSQESVTEQDSKDSTYSLSSTLTLSKADYEKHKVYACEVTHQGLSSPVTKSFNRGEC
notes: also called VH5VL4
B9: BsAb2-5-001 (bispecific antibody)
heavy: not shown
light: QTVVTQEPSLTVSPGGTVTLTCRSSTGAVTTSNYANWVQQKPGQAPRALIGGTNKRAPWTPARFSGSLLGDKAALTLSGVQPEDEAEYYCALWYSNLWVFGGGTKLTVLRTVAAPSVFIFPPSDEQLKSGTASVVCLLNNFYPREAKVQWKVDNALQSGNSQESVTEQDSKDSTYSLSSTLTLSKADYEKHKVYACEVTHQGLSSPVTKSFNRGEC
notes: also called VH1VL1

Target: T1, HBsAg recombinant protein
Experiment: ELISA, recombinant protein
Procedure: (§1) Anti-HBsAg/anti-CD3 bispecific antibodies generated in Example 1 are analyzed by standard ELISA techniques for their binding properties to HBsAg, human CD3E, and rhesus CD3ε recombinant protein, respectively.

B1 and B2 are within 1.5-fold of each other in EC50: 0.36 nM for the first, 0.45 nM for the second.

First: B3
Second: B4
The EC50 of the first is 2.4-fold higher: 0.48 nM for the first, 0.2 nM for the second. The second is the more potent here.

B5 and B6 are within 1.5-fold of each other in EC50: 0.31 nM for the first, 0.43 nM for the second.

B7 and B8 are within 1.5-fold of each other in EC50: 0.53 nM for the first, 0.51 nM for the second.

B9 showed an EC50 of 0.23 nM.

target: T2, rhesus CD3ε recombinant protein (rhesus); experiment: ELISA, recombinant protein
T2 construct: also called rhesus CD38 [sic]
Procedure: as §1

B9 gave an EC50 of 0.72 nM.
